Ka data for two molecules are collected here from patent publication US6936706.

This assay has as its target bacterial fusion protein 11-2 (a hybrid of b-galactosidase and human mammary mucin) (human) (UniProt P15941). The assay can be described thus: competition RIA against 125I-labeled murine BrE-3 on 11-2 fusion protein; reciprocal of the competitor concentration giving 50% binding.

B1: murine-human chimeric BrE-3 antibody (ATCC HB 11199, Chimeric BrE-3 A1C10) (antibody, V domains shown)
VH: EVKLEESGGGLVQPGGSMKLSCAASGFTFSDAWMDWVRQSPEKGLEWVAEIRNKANNHATYYDESVKGRFTISRDDSKSRVYLQMISLRAEDTGLYYCTGEFANWGQGTLVTVSA
VL: DVVMTQTPLSLPVSLGDQASISCRSSQNLVHNNGNTYLYWFLQKSGQSPKLLIYRASIRFSGVPDRFSGSGSETDFTLKISRVEAEDLGVYFCFQGTHVPWTFGGGTKLEIK
For B1, the Ka was 2.68e+08 M⁻¹.

B2: murine BrE-3 monoclonal antibody (ATCC No. HB 10028) (antibody, V domains shown)
VH: B1 VH
VL: B1 VL
With B2, the Ka stood at 3.75e+08 M⁻¹.
